Measured values reported in publication PMC12153344, “Deciphering the role of accessory proteins in Arabidopsis chloroplast editosomes via interaction with a synthetic PPR-PLS factor in E. coli”.

What was measured:
MBP-ORRM1 = biological target: T1, MBP-ORRM1 (Arabidopsis, UniProt Q8L440 55-374); experiment: EMSA; MBP-ORRM1; no shift after many purification attempts; REMSA following Royan et al. (2021), binding buffer, pH and temperature not given in the material; proteins stored in 25 mM Tris-HCl pH 7.2, 250 mM NaCl, 20% glycerol, 0.5 mM EDTA, 1 mM DTT; conditions: protein: recombinant; tags: N-terminal MBP; label: 5'-Cy5; single strand
T1 sequence: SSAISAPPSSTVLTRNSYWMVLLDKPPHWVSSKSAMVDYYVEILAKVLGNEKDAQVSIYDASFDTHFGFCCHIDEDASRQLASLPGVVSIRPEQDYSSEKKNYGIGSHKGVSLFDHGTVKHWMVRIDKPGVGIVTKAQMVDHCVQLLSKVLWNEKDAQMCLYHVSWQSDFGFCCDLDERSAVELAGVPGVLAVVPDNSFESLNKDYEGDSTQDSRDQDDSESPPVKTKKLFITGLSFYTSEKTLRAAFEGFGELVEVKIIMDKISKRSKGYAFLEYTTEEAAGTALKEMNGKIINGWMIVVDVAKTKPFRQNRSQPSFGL

dsn3PLS-DYW = biological target: T2, dsn3PLS-DYW (synthetic construct (design of Royan et …, UniProt UPI0040747504 1-612)); experiment: EMSA; dsn3PLS-DYW alone; Kd estimated, value only in figure; REMSA following Royan et al. (2021), binding buffer, pH and temperature not given in the material; proteins stored in 25 mM Tris-HCl pH 7.2, 250 mM NaCl, 20% glycerol, 0.5 mM EDTA, 1 mM DTT; conditions: protein: recombinant; tags: N-terminal thioredoxin (109 aa)-6xHis, 133 aa tag in total (pETM20); label: 5'-Cy5; single strand
T2 chain: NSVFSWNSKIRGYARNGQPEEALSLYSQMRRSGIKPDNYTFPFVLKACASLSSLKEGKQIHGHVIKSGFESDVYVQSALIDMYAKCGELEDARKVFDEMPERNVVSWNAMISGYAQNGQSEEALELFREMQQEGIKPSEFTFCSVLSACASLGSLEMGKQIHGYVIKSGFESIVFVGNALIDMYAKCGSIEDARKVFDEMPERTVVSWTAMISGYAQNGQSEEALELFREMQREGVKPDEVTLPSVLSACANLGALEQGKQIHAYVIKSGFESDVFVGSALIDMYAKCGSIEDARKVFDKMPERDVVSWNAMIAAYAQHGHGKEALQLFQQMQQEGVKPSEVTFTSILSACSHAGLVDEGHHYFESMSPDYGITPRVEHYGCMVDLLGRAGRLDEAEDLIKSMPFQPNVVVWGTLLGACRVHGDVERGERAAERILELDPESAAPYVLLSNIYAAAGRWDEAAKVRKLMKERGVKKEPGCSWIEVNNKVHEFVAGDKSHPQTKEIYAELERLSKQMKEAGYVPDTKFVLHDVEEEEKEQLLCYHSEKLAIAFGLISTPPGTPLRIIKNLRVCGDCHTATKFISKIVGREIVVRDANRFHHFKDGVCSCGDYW

Binder: AUGUAUUACACGUGCAAAAUCUGAGA (ssRNA) [rpoA_REMSA]
- binding result (MBP-ORRM1): no binding
- binding result (dsn3PLS-DYW): binds
